# Measurements from paper PMC3829167, “Directed Evolution of an Angiopoietin-2 Ligand Trap by Somatic Hypermutation and Cell Surface Display*” (The Journal of Biological Chemistry, 2013).
# Changes are numbered by the printed parent chain. Names may count otherwise.
# B1: soluble Tie2 ectodomain (1-442)-Fc fusion protein with F161I substitution (Fc fusion, human, UniProt Q02763 23-442, looked up)
# chain: AMDLILINSLPLVSDAETSLTCIASGWRPHEPITIGRDFEALMNQHQDPLEVTQDVTREWAKKVVWKREKASKINGAYFCEGRVRGEAIRIRTMKMRQQASFLPATLTMTVDKGDNVNISFKKVLIKEEDAVIYKNGSIIHSVPRHEVPDILEVHLPHAQPQDAGVYSARYIGGNLFTSAFTRLIVRRCEAQKWGPECNHLCTACMNNGVCHEDTGECICPPGFMGRTCEKACELHTFGRTCKERCSGQEGCKSYVFCLPDPYGCSCATGWKGLQCNEACHPGFYGPDCKLRCSCNNGEMCDRFQGCLCSPGWQGLQCEREGIQRMTPKIVDLPDHIEVNSGKFNPICKASGWPLPTNEEMTLVKPDGTVLHPKDFNHTDHFSVAIFTIHRILPPDSGVWVCSVNTVAGMVEKPFNISVK
# notes: signal peptide in the construct; human Tie2 ectodomain, residues 1-442, F161I; also called F/I; F161I ectodomain; source: HEK293 cells, transfected, secreted, purified (nickel-nitrilotriacetic acid chromatography); not shown: Fc (human), C-terminal, kept
# B2: soluble evolved (R3) Tie2 ectodomain (1-442)-Fc fusion protein (Fc fusion, human, UniProt Q02763 23-442, looked up)
# chain: AMDLILINSLPLVSDAETSLTCIASGWRPHEPITIGRDFEALMNQHQDPLEVTQDVTREWAKKVVWKREKASKINGAYFCEGRVRGEAIRIRTMKMRQQASFLPATLTMTVDKGDNVNISFKKVLIKEEDAVIYKNGSIIHSVPEVPDILEVHLPHAQPQDAGVYSARYIGGNLFTSAFTRLIVRRCEAQKWGPECNHLCTACMNNGVCHEDTGECICPPGFMGRTCEKACELHTFGRTCKERCSGQEGCKSYVFCLPDPYGCSCATGWKGLQCNEACHPGFYGPDCKLRCSCNNGEMCDRFQGCLCSPGWQGLQCEREGIQRMTPKIVDLPDHIEVNSGKFNPICKASGWPLPTNEEMTLVKPDGTVLHPKDFNHTDHFSVAIFTIHRILPPDSGVWVCSVNTVAGMVEKPFNISVK
# notes: signal peptide in the construct; human Tie2 ectodomain, residues 1-442, with F161I and the deletion of Arg-167/His-168 introduced by site-directed mutagenesis; The changes were found by directed evolution and put into m3 by site-directed mutagenesis; also called evolved ectodomain; R3 ectodomain; source: HEK293 cells, transfected, secreted, purified (nickel-nitrilotriacetic acid chromatography); …
# B3: soluble Tie2 ectodomain (1-442)-Fc fusion protein with the double Arg-167/His-168 deletion (Fc fusion, human, UniProt Q02763 23-442, looked up)
# chain: B2 chain with I139F
# notes: signal peptide in the construct; human Tie2 ectodomain, residues 1-442, Arg-167 and His-168 deleted; also called ΔRH; ΔArg-167/His-168; source: HEK293 cells, transfected, secreted, purified (nickel-nitrilotriacetic acid chromatography); not shown: Fc (human), C-terminal, kept
# Molecular target: T1, human angiopoietin 2 (human, UniProt O15123 19-496)
# T1 construct: human angiopoietin 2 (Ang2), recombinant protein from R&D Systems; also called Ang2; source: bought: R&D Systems
# T1 sequence (looked up): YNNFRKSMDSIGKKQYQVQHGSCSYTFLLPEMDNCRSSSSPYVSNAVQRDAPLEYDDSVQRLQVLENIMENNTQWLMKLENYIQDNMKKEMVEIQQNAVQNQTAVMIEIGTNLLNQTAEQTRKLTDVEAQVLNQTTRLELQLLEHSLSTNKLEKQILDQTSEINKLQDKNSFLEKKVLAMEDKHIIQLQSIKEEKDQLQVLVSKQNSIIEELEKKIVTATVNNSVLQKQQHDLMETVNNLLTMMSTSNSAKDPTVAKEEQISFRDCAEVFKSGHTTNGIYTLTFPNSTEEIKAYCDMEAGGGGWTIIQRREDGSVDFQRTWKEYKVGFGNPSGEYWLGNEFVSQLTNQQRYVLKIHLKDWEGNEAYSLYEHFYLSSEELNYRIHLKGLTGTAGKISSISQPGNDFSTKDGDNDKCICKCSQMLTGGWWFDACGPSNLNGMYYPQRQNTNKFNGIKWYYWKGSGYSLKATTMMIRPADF
# Assay: ELISA; 5 μg/ml Ang1 or Ang2 immobilised in 96-well plates; blocked with TBS, 1 mg/ml BSA, 0.1% Triton-X 100; ectodomain-Fc fusion protein bound for 1 h at different concentrations, detected with anti-Tie2 ectodomain antibodies; saturation binding curves fitted by nonlinear regression
# Settings: both partners purified
row,Binder,Max binding (% of WT)
1,B1,90.5 % of WT
2,B2,59.4 % of WT
3,B3,0.58 % of WT

# Molecular target: T2, human angiopoietin 1 (human, UniProt Q15389 16-498)
# T2 construct: human angiopoietin 1 (Ang1), recombinant protein from R&D Systems; in the other experiments it was detected with anti-Ang1 or immobilised; also called Ang1; source: bought: R&D Systems
# T2 sequence (looked up): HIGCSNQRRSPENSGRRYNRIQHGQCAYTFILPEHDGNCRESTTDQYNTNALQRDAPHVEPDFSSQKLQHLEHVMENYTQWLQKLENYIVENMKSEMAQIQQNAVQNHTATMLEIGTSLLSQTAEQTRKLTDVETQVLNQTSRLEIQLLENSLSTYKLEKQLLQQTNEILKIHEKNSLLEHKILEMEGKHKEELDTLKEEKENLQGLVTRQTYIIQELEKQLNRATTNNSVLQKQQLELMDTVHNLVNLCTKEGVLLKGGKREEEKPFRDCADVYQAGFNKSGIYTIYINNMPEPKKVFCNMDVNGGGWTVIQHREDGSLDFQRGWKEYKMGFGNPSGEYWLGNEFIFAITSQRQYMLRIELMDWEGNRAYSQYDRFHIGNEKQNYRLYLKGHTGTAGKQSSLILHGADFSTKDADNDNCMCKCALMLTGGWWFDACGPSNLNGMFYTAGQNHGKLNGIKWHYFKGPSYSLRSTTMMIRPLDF
# Assay: as above
# Settings: both partners purified
row,Binder,Max binding (% of WT)
1,B1,97.8 % of WT
2,B2,3 % of WT
3,B3,0.29 % of WT
